By Kd is commonly meant the equilibrium constant for the complex coming apart. Higher therefore signals weaker binding.

This experiment deals with randomly biotinylated GCase (Velaglucerase) (human, UniProt P04062, biotin, randomly on lysine residues (EZ-Link Sulfo-NHS-LC-Biotin); glycosylated). Nature of the experiment: BLI. On the technique in general: BLI is a label-free optical method that tracks binding on a fibre tip over time.
Chain of randomly biotinylated GCase (Velaglucerase) (P04062 40-536): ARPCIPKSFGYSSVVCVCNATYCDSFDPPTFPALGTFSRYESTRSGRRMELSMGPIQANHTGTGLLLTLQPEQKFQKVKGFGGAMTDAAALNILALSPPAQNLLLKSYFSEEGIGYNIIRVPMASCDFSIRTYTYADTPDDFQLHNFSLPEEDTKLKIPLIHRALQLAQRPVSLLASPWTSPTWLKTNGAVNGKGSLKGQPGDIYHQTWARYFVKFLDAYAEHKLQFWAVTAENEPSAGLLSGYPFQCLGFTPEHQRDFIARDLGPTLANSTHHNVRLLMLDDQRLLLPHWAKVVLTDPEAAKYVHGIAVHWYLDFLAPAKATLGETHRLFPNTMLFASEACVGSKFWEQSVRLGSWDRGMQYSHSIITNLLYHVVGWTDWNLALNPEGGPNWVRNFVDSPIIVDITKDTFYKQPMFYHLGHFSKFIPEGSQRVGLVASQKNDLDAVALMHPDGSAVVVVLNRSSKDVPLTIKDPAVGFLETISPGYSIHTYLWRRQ

B1: Nb1, C-terminally LPETGG-His6-EPEA-tagged (pHEN29) (VHH)
VHH: QVQLVESGGGLVQPGGSLRLSCAASGFTLDYYAIGWFRQAPGKEREGVSCISSSDGSTYYADSAKGRFTISRDNAKNTVYLQMNSLKPEDTAVYYCATDRGQCTYYSSGYYRDLRWYDYWGQGTQVTVSS
B1 yielded a Kd below 5 nM.

The values are drawn from article PMC12117155 (Nature Communications, 2025).
